The values below come from patent US20260133192A1 (FRED HUTCHINSON CANCER CENTER, published 2026).

*1 amine or outer side, *2 acyl side, *3 side chain or, on linkers, in order; H or OH if unused. Where no end group is shown, it is not given here. [ ]: non-standard residue; d: D form. βAsp = O=C(O)[C@H](CC(=O)[*:2])N[*:1]; Cit = NC(=O)NCCC[C@H](N)C(=O)O

What all share (assay): B cells sorted with PTM-peptide tetramers; PTM epitope to which the cloned antibody binds, Table 7
The target in experiment [1] is T1, CA9-3 PTM peptide GV{isoAsp}SSPR (human).
T1 construct: Synthetic isoaspartylated fragment of CA9
T1 peptide: GV[βAsp]SSPR
An excerpt: (§1) Once the immunogenic PTM peptides targeted by autoantibodies were identified, PTM-specific autoantibodies were isolated directly from SCLC patients and sequenced (FIG. 13). To accomplish this, PTM-binding B cells were enriched from SCLC patient peripheral blood mononuclear cells using PTM-peptide tetramers. PTM-peptide tetramers were created by combining PE- or APC-labeled magnetic tetramers containing streptavidin cores with biotinylated PTM peptides identified to bind more AAb from SCLC patient plasma compared to wildtype peptides. Five different PTM peptides were included in each PTM-tetramer; 5 citrullinated TFRC peptides were conjugated to PE-tetramers and 5 isoaspartylated peptides (3 CA9, 1 PLD3 and 1 SPINK1) were conjugated to APC-tetramers. These PTM-tetramers were then incubated with pooled peripheral blood mononuclear cells (PBMCs) from 3 different SCLC patients and tetramer bound cells were isolated with magnetic microbeads. This PTM-tetramer ‘enriched’ fraction was labeled with fluorescent antibodies and fluorescence activated cell sorted (FACS) into single cells. PTM-tetramer+ B cells were sorted, heavy and light chain antibody sequences from each B cell were amplified by RT-PCR, and heavy and light chain pairs were successfully sequenced. These sequences were cloned into human IgG expression vectors for antibody production and are shown in Table 7 with the location of the CRs underlined. The sequences of the CDRs were determined using the ImMunoGeneTics (IMGT) information system domain gap align.

The target in experiment [2] is T2, SPINK1-1 PTM peptide YNEL{iso-Asp}GCTKI (human).
T2 construct: Synthetic isoaspartylated fragment of SPINK1
T2 peptide: YNEL[βAsp]GCTKI
Source text: as §1

In experiment [3] the target is T3, TFRC-5 PTM peptide LND{Cit}VMRVC (human, also: biotinylated, site not given here).
T3 construct: Synthetic citrullinated fragment of TFRC; biotinylated on tetramers for B cell sorting
T3 peptide: LND[Cit]VMRVC
Source text: as §1

The target in experiment [4] is T4, TFRC-4 PTM peptide LNDRVM{Cit}VEYC (human, also: biotinylated, site not given here).
T4 construct: Synthetic citrullinated fragment of TFRC; biotinylated on streptavidin tetramers for B cell sorting
T4 peptide: LNDRVM[Cit]VEYC
Source text: as §1

Experiment [5] has as its target T5, TFRC-1 PTM peptide DFPAA{Cit}RLYW (human).
T5 construct: Synthetic citrullinated fragment of TFRC
T5 peptide: DFPAA[Cit]RLYW
Source text: as §1

The target in experiment [6] is T6, TFRC-2 PTM peptide DFPAAR{Cit}LYW (human).
T6 construct: Synthetic citrullinated fragment of TFRC
T6 peptide: DFPAAR[Cit]LYW
Source text: as §1

B1: 1B3 (antibody, V domains shown)
VH: QVQLVESGGGLVQPGGSLRLSCAASGFTFSSYWMSWVRQAPGKGLEWVANIKQDGSEEYYVDSVKGRFTISRDNAKSLLYLQMNSLRPEDTAVYYCAGDSLPSSGWEGYFQHWGQGTLVTVSS
VL: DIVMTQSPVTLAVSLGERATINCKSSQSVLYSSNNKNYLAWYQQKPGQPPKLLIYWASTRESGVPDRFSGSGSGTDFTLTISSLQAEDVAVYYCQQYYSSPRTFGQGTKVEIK
As for B1, the binding result in experiment [1] is “binds”.

B2: 1A6 (antibody, V domains shown)
VH: QAGLLESGGGVVQPGRSLRLSCAASGFTFSSYGMHWVRQAPGKGLEWVAVIWYDGSNKYYADSVKGRFTISRDNSKNTLYLQMNSLRAEDTAVYYCARGGGITGTVSRKQGMDVWGQGTLVTVSS
VL: AIQLTQSPSSLSASVGDRVTITCRASQGISSYLAWYQQKPGKAPKLLMYGASTLQSGVPSRFSGSGSGTDFTLTISSLQPEDFATYYCQQVNSYPLTFGGGTKVEIK
Take B2: the binding result in experiment [2] is “binds”.

B3: 2H8 (antibody, V domains shown)
VH: QVQLVESGGGVVQPGRSLRLSCAASGFTFSTYGMHWVRQAPGKGLQWVAQISNDGSSKYYGDSVKGRFTISRDNSKNTLYLQMNSLRVEDTGVYYCASSGSSGTWGQGTQVTVSS
VL: EIVLTQSPATLFLFPGERVTFSCRASQSVNNYLAWYQQKPGQAPRLLIYDVSNRATGIPARFSGSGSGTDFTLTISSLDPEDFAVYFCQQRSNWPLTFGGGTKVEIK
Consider B3, for which the binding result in experiment [3] is recorded as “binds”.

B4: 2D2 antibody (antibody, V domains shown)
VH: QVQLVESGGGVVQPGRSLRLSCAASGFTFNSFALMWVRQAPGKGLEWVAVISNDGSNTYYADSVKGRFTISRDNSKNTLYLQMNSLRAEDTAVYYCARGSQYYGSGRYSRKQFDYWGQGTMVTVSS
VL: DIQMTQSPLSLPVTPGEPASISCRSSQSLLHADDGNTYLDWYLQKPGQSPQLLIYTLSSRASGVPDRFSGSGSGTNFTLRISRVEAEDVGVYYCMQRIESPLTFGGGTKVEIK
notes: From B cells of SCLC patient PBMCs; Labeled with CF770 for the in vivo imaging; also called 770-labeled 2D2 antibody
For B4, in experiment [4], the binding result was “binds”.

B5: 2H5 (antibody, V domains shown)
VH: EVQLLESGGGLAQPGGSLRLSCGASGFTFSSHALSWVRLAPGKGLEWVSAISGSGDRTYYADSVKGRFTISRDNSKNMLYLQMNSLRGEDTAVYYCAKEATESYATSWGQGTLVTVSS
VL: DIQMTQSPSTLSASVGDRVTITCRASQSISSWLAWYQQKPGKAPNLLISKAFSVESGVPSTFSGSGSGTEFTLTISSLQPRDSASYYCQQYDSGWTFGQGTKVEIK
As to B5, the binding result in experiment [5] and in experiment [6] was “binds” each time.
